Ends that are not written are not given here. * marks the point of attachment. Biotin = O=C1N[C@H]2[C@H](CS[C@H]2CCCCC(=O)*)N1
Assays:
β-tubulin = β-tubulin (human (endogenous in VTC-001 and …, UniProt P07437 1-444)); assay: cellular thermal shift assay (CETSA); fresh VTC-037 GSC lysates in non-denaturing buffer treated 1 h with 3-fold dilutions (222.2, 74.0, 24.7, 8.2 and 2.7 nM) of peptide, heat challenge at 57 °C for 20 min, centrifugation, immunoblot of the stable protein normalised to DMSO control; EC50 of target engagement; conditions: one partner purified
α-tubulin = α-tubulin (human (endogenous in VTC-037 GSCs), UniProt P68363 1-451); assay: as above; conditions: one partner purified
Sequence of α-tubulin (P68363 whole entry): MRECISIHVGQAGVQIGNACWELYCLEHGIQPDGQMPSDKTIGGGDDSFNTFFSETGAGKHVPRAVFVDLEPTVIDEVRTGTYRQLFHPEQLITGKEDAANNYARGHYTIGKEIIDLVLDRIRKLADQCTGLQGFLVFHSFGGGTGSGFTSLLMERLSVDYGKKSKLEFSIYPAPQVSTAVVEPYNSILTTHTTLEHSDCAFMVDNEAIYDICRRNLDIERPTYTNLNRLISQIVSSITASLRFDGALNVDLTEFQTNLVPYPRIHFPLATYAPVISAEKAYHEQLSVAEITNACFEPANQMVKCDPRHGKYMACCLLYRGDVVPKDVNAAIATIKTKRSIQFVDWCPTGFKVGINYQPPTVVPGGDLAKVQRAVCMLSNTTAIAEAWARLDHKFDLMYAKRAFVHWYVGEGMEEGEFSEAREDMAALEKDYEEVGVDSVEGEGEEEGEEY

Sequence of β-tubulin (human (P07437 whole entry): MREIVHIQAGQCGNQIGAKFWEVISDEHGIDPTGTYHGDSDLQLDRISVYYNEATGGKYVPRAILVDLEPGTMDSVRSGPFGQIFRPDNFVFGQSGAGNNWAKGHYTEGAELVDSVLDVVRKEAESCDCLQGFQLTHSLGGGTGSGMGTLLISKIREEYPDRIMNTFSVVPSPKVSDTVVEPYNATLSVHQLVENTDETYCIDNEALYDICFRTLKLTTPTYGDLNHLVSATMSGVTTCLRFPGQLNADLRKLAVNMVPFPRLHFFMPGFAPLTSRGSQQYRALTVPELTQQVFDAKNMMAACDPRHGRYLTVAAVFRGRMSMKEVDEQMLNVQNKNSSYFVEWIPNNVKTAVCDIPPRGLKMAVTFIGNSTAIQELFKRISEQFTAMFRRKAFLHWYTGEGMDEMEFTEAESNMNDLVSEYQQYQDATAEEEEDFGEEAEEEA

EC50 (β-tubulin): > 200 nM | EC50 (α-tubulin): > 200 nM
Binder: Biotin-RQPKIWFPNRRKPWKKGSDVFKRKFVDRKVG [JM2-scrambled peptide]

From publication PMC12084297, “Cytoplasmic connexin43-microtubule interactions promote glioblastoma stem-like cell maintenance and tumorigenicity” (Cell Death & Disease, 2025)
